The target of test [1] is Human T cell receptor on human primary T cells (human) (UniProt P01848). In words: cell-based or functional assay.
In test [2] the target is Cynomolgus T cell receptor on cynomolgus primary T cells (cynomolgus monkey). In words: cell-based or functional assay.

Sequence of Human T cell receptor on human primary T cells (human) (P01848 whole entry, chain 1 of 2): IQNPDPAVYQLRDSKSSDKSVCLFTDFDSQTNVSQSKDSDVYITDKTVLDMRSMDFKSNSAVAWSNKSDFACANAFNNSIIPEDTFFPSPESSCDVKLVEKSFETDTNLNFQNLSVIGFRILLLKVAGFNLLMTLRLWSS
Sequence of Human T cell receptor on human primary T cells (human) (P01850 whole entry, chain 2 of 2, further chain): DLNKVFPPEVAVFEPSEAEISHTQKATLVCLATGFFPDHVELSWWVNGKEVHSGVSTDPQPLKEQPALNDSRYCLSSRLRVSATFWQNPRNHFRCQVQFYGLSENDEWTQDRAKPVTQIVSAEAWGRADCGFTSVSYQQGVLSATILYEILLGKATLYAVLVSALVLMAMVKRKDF

B1: T017000677 (bispecific antibody)
chain: DVQLVESGGGLVQAGGPLRLSCAASGRTFSSYVMGWFRQAPGKEREFVAAIYWSNGKTQYTDSVKGRFTISGDNAKNTVYLQMNSLNPEDTAVYYCVADKDETGFRTLPIAYDYWGQGTLVTVSSGGGGSGGGGSGGGGSGGGGSGGGGSGGGGSGGGGSEVQLVESGGGVVQPGGSLRLSCVASGYVHKINFYGWYRQAPGKEREKVAHISIGDQTDYADSAKGRFTISRDESKNTVYLQMNSLRPEDTALYYCRALSRIWPYDYWGQGTLVTVSSGGGGSGGGGSGGGGSGGGGSGGGGSGGGGSGGGGSEVQLVESGGGLVQAGGSLRLSCAASGITSKINDMGWYRQTPGNYREWVASITATGTTNYRDSVKGRFTISRDNAKSTVYLQMNSLKPEDTTVYYCNTFPPISNFWGQGTLVTVSSA
In the case of B1, in test [1], the % lysis, KG-1a, Human T cell mediated killing stood at 65%; the % lysis, MOLM-13, Human T cell mediated killing turned out to be 20%; the Average EC50 (M), KG-1a, Human T cell mediated killing amounted to 1.5e-11 M; the Average EC50 (M), MOLM-13, Human T cell mediated killing stood at 1.2e-11 M. Further, in test [2], the % lysis, MOLM-13, Cynomolgus T cell mediated killing came out at 54% and the Average EC50 (M), MOLM-13, Cynomolgus T cell mediated killing is 5.1e-12 M.

B2: T017000676 (bispecific antibody)
chain: DVQLVESGGGLVQAGGSLRLSCAASGITSKINDMGWYRQTPGNYREWVASITATGTTNYRDSVKGRFTISRDNAKSTVYLQMNSLKPEDTTVYYCNTFPPISNFWGQGTLVTVSSGGGGSGGGGSGGGGSGGGGSGGGGSGGGGSGGGGSEVQLVESGGGLVQAGGPLRLSCAASGRTFSSYVMGWFRQAPGKEREFVAAIYWSNGKTQYTDSVKGRFTISGDNAKNTVYLQMNSLNPEDTAVYYCVADKDETGFRTLPIAYDYWGQGTLVTVSSGGGGSGGGGSGGGGSGGGGSGGGGSGGGGSGGGGSEVQLVESGGGVVQPGGSLRLSCVASGYVHKINFYGWYRQAPGKEREKVAHISIGDQTDYADSAKGRFTISRDESKNTVYLQMNSLRPEDTALYYCRALSRIWPYDYWGQGTLVTVSSA
In test [1], B2 came in with a % lysis, KG-1a, Human T cell mediated killing of 41%; a % lysis, MOLM-13, Human T cell mediated killing of 25%; an Average EC50 (M), KG-1a, Human T cell mediated killing of 8.2e-11 M; an Average EC50 (M), MOLM-13, Human T cell mediated killing of 2.3e-11 M. Moreover, the IC50 (M), xCELLigence cell killing, Human T cell mediated killing, E:T 15:1 in test [1] came to 1.1e-10 M. Besides, in test [2], the % lysis, KG-1a, Cynomolgus T cell mediated killing stood at 28%; the % lysis, MOLM-13, Cynomolgus T cell mediated killing came to 26%; the Average EC50 (M), KG-1a, Cynomolgus T cell mediated killing is 1.4e-11 M; the Average EC50 (M), MOLM-13, Cynomolgus T cell mediated killing worked out at 2e-11 M.

These data come from US20240092919A1.
